According to the domain aggregation screens of Martell et al. (2025):

Experiment: soluble fraction after stress (log2 fold change); higher = more stays soluble; pooled small domains, quantitative proteomics
Settings: stress: 75 degC
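Note: 20 min heating vs room temperature control held 20 min.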

HMKLIRIPFILTEGPDSQKITIDVDGDEEFRLGDVFEEDDKLWTVNQILVSGERKAKRSMAGEVMRISALR
soluble fraction (log2): -1.2

HMEKLNYSISNEEQGQRIDKYLSLMIEGKSRSFIQGLIDDKKVMANGKVIKSNYKLKNNDEITVEMPDPI
soluble fraction (log2): -0.0366

HMDEEVLVVQEGGERLDVFVAANAEGITRSFVQNLIKKGDVTVDGAPRKANYRLRSGQVVRFSLPEP
soluble fraction (log2): -0.204

HMNSSTYIVTFKVDGEEDIVETYQWGDRIIVPEVEAKDDYVFIGWDAQIPEFMPERNLEFTAI
soluble fraction (log2): -0.895

HMALPEHIEPFLRGLGQALAEGDSYEDVQERLLRAYPYLDSTEFQTALARVIFISDLWGRLN
soluble fraction (log2): -1.85

HMYGVAEFDEKGNVLSIEEKPVQPKSNYAVVGLYFYPNKVVGVASGIKPSARGELEITTVNQTFLRDEELK
soluble fraction (log2): 0.204

HMTSAIAEGTVIRLTQSTNIRESMSEDAPKVATAFSGEKVTVIMSYAEGWTKVTYGDKTGYIKTELL
soluble fraction (log2): -1.1

HMRHSLAAALTELRRLAALDLGDFFRFEYVSHTDSLGGKQQAYTEGIRVSFGVYLGVNKKDRLNVDPVV
soluble fraction (log2): -3.42

HMPKELAPYDILARYYLTVNNSKQSIALLEQYLDKAGSAPAALKAKLLLAGILYPSGNKERAEKLVEEVIK
soluble fraction (log2): -0.463

HMAPELSGEKLWDAQDVAMFLRVKPTTVWSYVSRDGFPAPVSQAGRAGMWSEPLVVQWYLSRPG
soluble fraction (log2): 0.154

HMKGLKERLLYFIEYKGLPVQMFEKIVGLSNAAVSKMGDNTRRSTIDKISKSFPELDVNWLLTGQGEMLSY
soluble fraction (log2): -0.942

HMPLSDAEKAAAIATQAKERALKLSPEMISYLLRHASRDMRTLSMLVVALDQYTLEQKRPVTLPLLRELLS
soluble fraction (log2): -0.0668

HMSADEVSQQLTSEQTKSKSYQALLQAYAAYQQKSFDDAALELQNVQQDVLSDSQKTIYNTISQAVNS
soluble fraction (log2): 0.26

HMETVRLSVDAQGAYYWNEQRVDDSALPDLLREASGRKPQPDLHIRGDKAVRYERVAEAMAAAQRAGLKKI
soluble fraction (log2): 0.272

HMDDTVILPIQINGKRRAEISVPKAMPASEVEKLALANEDVLRFLAGQPIKKLIVVPGRIINVV
soluble fraction (log2): 0.0584

HMGFDTVVEKVLGLITSRPMTSRDIQMTLGRSREHTSRLMNRLYKEGLVDRNTSSKPFSYIITEKGREKI
soluble fraction (log2): -0.429

HMTYFDIAPELLTVYKEINDIPRDINQIVRKTGLSINEVSYKTMILQLEDKIVELPGQRFIRNS
soluble fraction (log2): -2.46

HMEPPPSYSALLKQISSGKVKELQLVPARREVIVTYPDGRSATVAILANDQQILRTAEAAGTPLLVK
soluble fraction (log2): 0.189

HMVLSKGAKELLDFIMREGEVTTSKVVQKFGGSAQNASAKLKKLYATGLILGSKAVAESGGLEFVYKA
soluble fraction (log2): 0.256

HMSTMLPFVMRELVELVMKKKALPLGDALYYIYSSKLYKSLLDKSTKLWYSSTLSLYETLEKEKTEEKRRY
soluble fraction (log2): -2.04

HMNMEYQKAINHIVQMVKDGQLIVGSKIPSERDLSESLGIGRNSTREAISILRGMGLVESRHGSGNYIAKD
soluble fraction (log2): -0.2

HMKGLDRATNKALLLKHIIDNGSTGTRFSELRQVLPSLTRGSISSLLIELRSEGKIHSIGVTRNARWYPTE
soluble fraction (log2): -1.79

HMEASVNAPMPGKIVSVSVSEGQQVNAGDVLLILEAMKMQNEITADAAGTVKAINVNAGQSVKNGDSLVIL
soluble fraction (log2): 0.832

HMKFSVEEQFKKSFPKNTYETFSETSLKGVYEVYNGKQVYYYLPVNDVLLLGSIVTKDGKNLTQESNSKK
soluble fraction (log2): -0.279

HMQTFGTMIAALRKEQGMTQLELAEKMGVTDKAVSKWERDLSFPDVNSLPKLAEIFHVSVDEL
soluble fraction (log2): -0.16

HMAEPSTSYTQFMDQAKEGKIKRVDVQGRTLTVTPTEGATYKITAPGDLWMVEDLRKAGVQVYGQP
soluble fraction (log2): 0.29

HMANPRLEYFLSNITPDWNEFSPELKNQLLIENADPYKLEQYILQVSPDMYIEEQNAPGTVRQMAGDITG
soluble fraction (log2): 0.137

HMNPHIQFWSLLRRQPDYNSAYKDELKAMFVWQWSGEKTESLNEFYKTDPYRYKSMLMDMRNRAL
soluble fraction (log2): -3.33

HMFDTVTIGRKIAELRKAHNMTQFELADALGISFQAVSNWERGASMPDISKLPELAEIFGVTIDEVLGK
soluble fraction (log2): -1.5

HMQRQGTVATQQTPLNIRSQPSLSAQVIGQAPKGATVAILGESGDWYQIRYQNITGYSSKQYI
soluble fraction (log2): 0.0804

HMSSIVLTARSGRAALAYRVKSIGVDLSKDQLDLVYKTFLGFADKKKEIIDTDIPQILKASGI
soluble fraction (log2): -2.74

HMKQLLHLVIGGELKDVRGIEFEDLSKIDFVGAFPSYKAAYDAWKNAAQRTVDNAEMRYFILHAHR
soluble fraction (log2): -1.92

HMDNWAALLSEREVQVSRLVANGASNKEIADHLAITERTVKAHLTAVFEKLGVRDRLQLSLRVNGL
soluble fraction (log2): -3.94

HMPRPFPELTTREHDILALIARGWSNGRIADHLSLSGKTVSNYVSNILGKLQVTARAEAAERAREAGMGQ
soluble fraction (log2): -0.379

HMEESTYQWNNFVRDFYASRVSAQYTNKLKVAAILWHHVKNTPQSKIYHDNLVSKYAEEINYFK
soluble fraction (log2): -2.8

HMKLTPKQQQIYDFISSFADEHGYPPSVREIAQAVNLKSPATVHFHLKGLREAGYISQAEGKTRAITI
soluble fraction (log2): -0.158

HMFQRLPFSFANRYKMVLEYQHPERPPVLYYVEPLKAAAILEVSRVIKSGFTPQAIVSDEFEKKLTEAYQR
soluble fraction (log2): -2.76

HMNPFLELTEREMDVLRLIAIGRNNQEIASELVISEKTVKTHITNIFSKLHFKDRTQAAAYAWQSGIVR
soluble fraction (log2): -1.73

HMKSARDDILSALDKAGEPLSMKDIAELSGRKLSTLRAQMTRLVAEGAVQATAAAHSPDRKYRK
soluble fraction (log2): -0.319

HMKVKEYKLVDWISTFTKNEGYGISQKAAMLLAEFLGDDLSRIANEIEKLKLLVEKGTTINDVHIEENI
soluble fraction (log2): -1.09

HMEEYTVEFVKHKVKRKQTLYTISKLYNVSIDDIIKYNSQIEGFNLSRRMELNIPVKKTLIVKNE
soluble fraction (log2): -2.55

HMLPLLEYLDPFTGKKTYTYLNPDTQHPIFTYYSYQDDKTGRTAYSYIDPLTGKAVNSDEPPMDILYD
soluble fraction (log2): -0.676

HMNMAEETLDTAAKILKAAEEEFMEKGYGNAKMMSIAARAGVSHSMLHYYYRSKGKLFQMIFDEKA
soluble fraction (log2): -1.41

HMNNVDQLIEQYKTLPGGLLPLLHAIKHALGYIPESTVGSIAKGFNLSRAEVHGVISFYHDFNTQP
soluble fraction (log2): 0.07

HMTILTSSQRKALISKMIRQGGVESQSHLVKLLAREGVKVTQATASRDLEDLGATRVRDANGEFQYVIP
soluble fraction (log2): -1.16

HMVSPEVEMLRAAVETMSERQKQVYELHYLRGFNVKETAAILGMSSPTVTAHKKRIMEIIKKFFE
soluble fraction (log2): -1.46

HMNHLLYPNPANNFIWIKNSTSNTAVIYNLQGVMSKVEVSEEGKIDISRFSPGLYMIKQGERIYKFTIA
soluble fraction (log2): -1.75

HMIKLSTNENTALRLVMERGLVTESELKGLFDNPVAVMESLISKMIETNTHWIHSERSENGEWVYAWQ
soluble fraction (log2): -2.01

HMELRSPMPGLIIEIPVSKGDIIKKDQSLIILEAMKMENVLTSPINGKIADIKVNVQDTVEKNNLLITFEN
soluble fraction (log2): -0.0769

HMTRVANIPYSEFLKLVETDKINDVSMVGKTISGHLDDGTKFSTYTPPNDPNLIDKLSKHNVIIKAGPE
soluble fraction (log2): -0.000643

HMGQVPPLTRRETEIARLVSRGLSNKEIASTLVISPRTAEGHVEHILDKLGFSSRTQIATWLNEQTRNGK
soluble fraction (log2): -0.14

HMEDEAVMQLPLSELKGLSPELLAILNGAGYEKLKDVLDLEREDIERIPGMTPERNEQLVAFLAELTE
soluble fraction (log2): 0.619

HMVMSTDAELILEYLAKHQGEMEITDKSSPELIMDTFNMSKGAFKRALGSLYKSKTVVIESTKVLLNT
soluble fraction (log2): -1.44

HMGVPTEQEIGKRILAWRKLRGMTLQQLADKAGVGLTTIHNLETGLWYAKMPTYLYIAEALGVSLDALIYG
soluble fraction (log2): -1.76

HMTKTEFLNLLEQRLFVLNDNERADLLSEYKQHIEMKIQSGLSEEEAIADFGDPEELIKELLEAY
soluble fraction (log2): -0.956

HMLDEIAGQKVRVLEEINNSEGTGKVMYRGVEWMARSVDDAVMAKDSIVTVQSISGVKLMVT
soluble fraction (log2): -0.184

HMNDMPELLSIKEASQWATEYLNKNVTTSNIAYLIQYGRIRKIGNNGSTQVLKDDLVKYYKDQK
soluble fraction (log2): -0.11

HMLSDLTPGDLVVHATHGIGRFLGIRKLELEGMTKDYITIQYRGNENLYVPVTQMDLVSRYI
soluble fraction (log2): -1

HMFEATGKITGTEVSFRRKPTTDSERILFFDINTEFRVIGINNGWYKGVYQGKTGYVRSDFVEIVGG
soluble fraction (log2): -2.05

HMGKFMVQVGAFSRINGAEITRTKYDNLGTHKAIIKNLDGMNRVFLTGFLSEDEARDFIASSNLKGAFIIR
soluble fraction (log2): -2.13

HMIAGHLQEKKGFFYIVLSYPDAAGKRKTKWFPTKLSVKGNKKKAEVMLMDARKTFVPPETPL
soluble fraction (log2): -0.497

HMDEPSITYGKVKVQTSLNVRQGPGTQYARIGSLGPNVRIQILGQEGQWYKIKYGNLQGYVHSDYVELEK
soluble fraction (log2): -0.026

HMSVPQENKDLLGRSIEIFYAGKTVEAKVTDTGALAPLGRALDLSPATWRAFGASSISDWGVRGVFYRFVA
soluble fraction (log2): 0.212

HMRLSESLLDDIPGIGAARKRALLQSFGSVRKLRHADAEEIAAKVPGIGLNFAEKIVEALRKK
soluble fraction (log2): 0.391

HMELNESVLKALYEKFREMSGSKGFITEDEVIIQLEKENPDITPDQQAEIFKYLYDTPLQIY
soluble fraction (log2): -0.268

HMKEIGGGPASKFIYYLIKTKHPIEQGDLIGITHLPRRTVQSAIEDLKNQGFIIERNSLDDSRRKVYYPVK
soluble fraction (log2): -0.943

HMTTGGAEELGRTERKIVEQVGRGLSNREIAQVLGLSEGTVRNYLSTILGKLGLRDRTQLAIWSVQTGFAA
soluble fraction (log2): 0.21

HMAWIAVATKEDYSEYEWKELSPTTDWSTQTFDLGDLAGKTIYAVKMFFDHDTDVKDYKFNLGQLSITSN
soluble fraction (log2): -0.189

HMKSLLTARQLEVFEIARNKGYWTTPRKISLVELSKLLDISKSTLSVLLHSIEGKVMEEFYEEIRQ
soluble fraction (log2): -2.22

HMAMDYTVVHSDRRTIAIQIQRDGRVVVRAPYAATAEDIRRVVDSHRDWVEKTVRRQQEQLAAS
soluble fraction (log2): -0.985

HMAAVPYQVKITTEDLRIRTGPGTNHDFTGQYTGKGVFTIVEESEGSGAPIWGRLKSGAGWIGIDPSWSVR
soluble fraction (log2): -0.546

HMLYDNQLPDWAGQMVKNHGLTISPKALVILVDHIGNDLSRIENEIEKLMLNLGTRKSITEDDVEN
soluble fraction (log2): -1.61

HMPEPAPALPAKTRVSIRRETGGIIWHEGAWTISPPIRAYDGRWYVAVTTARKGIEFVPVSSVIRS
soluble fraction (log2): -2.18

HMTRHSSVDFAGYILRNKENEPIFGFGKHKGKTVVEVLQREQGYFGWLMEADFPLYTKKVLTAIRLNTLNS
soluble fraction (log2): -0.261

HMIDLPEAFIQQLKEAVDVGDVTGLRELLGQLRRRYPQQSALSDEAERLLREFDFERLAQLFEGLD
soluble fraction (log2): -1.67

HMELTDSLTENAKKLYSVLTTEPRHIDDLSEEAKLSSADTLAALTELELYSLVALSEGKHYYK
soluble fraction (log2): -0.349

HMTVPDVKGMGARDAVFLLETLGFKVRINGIGQVYEQSIDPGKSYSKGEFISLRL
soluble fraction (log2): -0.699
